# Experimental data: patent US20180044422A1, “TREATING SOLID TUMOR BY TARGETING DECTIN-1 SIGNALING” (New York University, priority 2016, published 2018)
# Assays:
# [1] = target: Polyadenylate-binding protein 1 (mouse) (UniProt P29341); assay: Dectin-1 Fc affinity purification from KPC cell lysate, mass spectrometry
# [2] = target: Putative uncharacterized protein (Sqrdl) (mouse) (UniProt Q9R112); assay: as above
# [3] = target: 60S ribosomal protein L18 (mouse) (UniProt P35980); assay: as above
# [4] = target: Peroxiredoxin-1 (mouse) (UniProt P35700); assay: as above
# Sequence of Peroxiredoxin-1 (mouse) (P35700 2-199 limits assumed): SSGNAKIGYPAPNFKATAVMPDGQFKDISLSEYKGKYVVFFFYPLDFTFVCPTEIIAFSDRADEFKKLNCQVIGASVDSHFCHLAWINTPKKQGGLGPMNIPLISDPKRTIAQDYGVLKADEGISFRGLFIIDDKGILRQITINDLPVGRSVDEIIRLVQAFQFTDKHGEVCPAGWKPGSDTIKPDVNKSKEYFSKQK
# [5] = target: Sodium/potassium-transporting ATPase subunit alpha-1 (mouse) (UniProt Q8VDN2); assay: as above
# [6] = target: Eef2 protein (mouse) (UniProt P58252); assay: as above
# [7] = target: Elongation factor 1-gamma (mouse) (UniProt Q9D8N0); assay: as above
# Sequence of Elongation factor 1-gamma (mouse) (Q9D8N0 2-437 limits assumed): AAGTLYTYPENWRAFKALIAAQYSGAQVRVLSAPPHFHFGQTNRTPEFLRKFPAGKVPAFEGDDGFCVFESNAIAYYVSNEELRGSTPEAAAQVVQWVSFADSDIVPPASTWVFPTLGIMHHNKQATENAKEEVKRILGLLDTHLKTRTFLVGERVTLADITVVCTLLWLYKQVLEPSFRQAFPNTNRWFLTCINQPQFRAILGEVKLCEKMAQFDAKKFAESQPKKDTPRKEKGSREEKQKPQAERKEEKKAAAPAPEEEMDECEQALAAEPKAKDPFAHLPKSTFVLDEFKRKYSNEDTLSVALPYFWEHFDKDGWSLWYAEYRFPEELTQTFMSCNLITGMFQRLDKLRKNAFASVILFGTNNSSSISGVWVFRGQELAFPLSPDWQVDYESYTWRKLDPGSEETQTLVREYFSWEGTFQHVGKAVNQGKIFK
# [8] = target: Dolichyl-diphosphooligosaccharide-protein glycosyltransferase subunit 1 (mouse) (UniProt Q91YQ5); assay: as above
# [9] = target: Prohibitin (mouse) (UniProt P67778); assay: as above
# Sequence of Prohibitin (mouse) (P67778 2-272 limits assumed): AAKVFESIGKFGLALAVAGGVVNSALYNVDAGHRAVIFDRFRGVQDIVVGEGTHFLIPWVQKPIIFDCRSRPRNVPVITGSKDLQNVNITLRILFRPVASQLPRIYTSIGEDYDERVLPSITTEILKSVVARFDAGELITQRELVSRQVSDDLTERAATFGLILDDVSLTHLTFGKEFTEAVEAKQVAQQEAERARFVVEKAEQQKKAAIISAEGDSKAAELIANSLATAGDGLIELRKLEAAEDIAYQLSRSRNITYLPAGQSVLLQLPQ
# [10] = target: Elongation factor 1-alpha 1 (mouse) (UniProt P10126); assay: as above
# [11] = target: Isoform 2 of Microtubule-associated protein 4 (mouse) (UniProt P27546); assay: as above
# Sequence of Isoform 2 of Microtubule-associated protein 4 (mouse) (P27546 other isoform, or with tags, fused parts or gaps limits assumed): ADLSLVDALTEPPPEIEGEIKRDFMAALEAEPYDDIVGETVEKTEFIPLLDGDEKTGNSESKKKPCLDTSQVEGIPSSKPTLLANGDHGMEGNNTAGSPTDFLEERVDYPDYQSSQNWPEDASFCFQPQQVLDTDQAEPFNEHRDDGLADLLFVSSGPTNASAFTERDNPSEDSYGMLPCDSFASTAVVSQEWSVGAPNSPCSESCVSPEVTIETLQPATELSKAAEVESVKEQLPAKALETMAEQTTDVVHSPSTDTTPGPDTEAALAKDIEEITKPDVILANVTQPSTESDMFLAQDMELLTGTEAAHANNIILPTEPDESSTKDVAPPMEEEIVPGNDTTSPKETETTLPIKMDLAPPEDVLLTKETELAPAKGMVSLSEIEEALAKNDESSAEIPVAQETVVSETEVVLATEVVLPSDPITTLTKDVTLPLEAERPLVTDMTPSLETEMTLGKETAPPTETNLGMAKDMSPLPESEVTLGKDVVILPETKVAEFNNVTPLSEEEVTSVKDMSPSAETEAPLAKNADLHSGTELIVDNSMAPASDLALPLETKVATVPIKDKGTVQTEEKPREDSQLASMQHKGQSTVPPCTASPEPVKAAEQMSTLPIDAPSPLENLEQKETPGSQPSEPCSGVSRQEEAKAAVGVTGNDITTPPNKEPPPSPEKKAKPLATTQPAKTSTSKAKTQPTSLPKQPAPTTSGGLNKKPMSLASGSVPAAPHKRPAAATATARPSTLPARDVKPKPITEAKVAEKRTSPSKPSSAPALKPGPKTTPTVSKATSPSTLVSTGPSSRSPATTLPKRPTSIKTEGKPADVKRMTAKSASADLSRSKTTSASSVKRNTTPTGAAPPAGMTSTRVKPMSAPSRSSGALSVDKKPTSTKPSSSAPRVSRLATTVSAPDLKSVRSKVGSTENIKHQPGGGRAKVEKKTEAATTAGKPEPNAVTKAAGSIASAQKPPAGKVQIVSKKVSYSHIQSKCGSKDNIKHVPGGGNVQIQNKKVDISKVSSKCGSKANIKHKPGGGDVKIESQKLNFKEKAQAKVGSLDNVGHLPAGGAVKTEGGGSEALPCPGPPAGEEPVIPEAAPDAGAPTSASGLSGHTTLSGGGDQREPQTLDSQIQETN
# [12] = target: Probable ATP-dependent RNA helicase DDX17 (mouse) (UniProt Q501J6); assay: as above
# [13] = target: Endoplasmin (mouse) (UniProt P08113); assay: as above
# Sequence of Endoplasmin (mouse) (P08113 22-802 limits assumed): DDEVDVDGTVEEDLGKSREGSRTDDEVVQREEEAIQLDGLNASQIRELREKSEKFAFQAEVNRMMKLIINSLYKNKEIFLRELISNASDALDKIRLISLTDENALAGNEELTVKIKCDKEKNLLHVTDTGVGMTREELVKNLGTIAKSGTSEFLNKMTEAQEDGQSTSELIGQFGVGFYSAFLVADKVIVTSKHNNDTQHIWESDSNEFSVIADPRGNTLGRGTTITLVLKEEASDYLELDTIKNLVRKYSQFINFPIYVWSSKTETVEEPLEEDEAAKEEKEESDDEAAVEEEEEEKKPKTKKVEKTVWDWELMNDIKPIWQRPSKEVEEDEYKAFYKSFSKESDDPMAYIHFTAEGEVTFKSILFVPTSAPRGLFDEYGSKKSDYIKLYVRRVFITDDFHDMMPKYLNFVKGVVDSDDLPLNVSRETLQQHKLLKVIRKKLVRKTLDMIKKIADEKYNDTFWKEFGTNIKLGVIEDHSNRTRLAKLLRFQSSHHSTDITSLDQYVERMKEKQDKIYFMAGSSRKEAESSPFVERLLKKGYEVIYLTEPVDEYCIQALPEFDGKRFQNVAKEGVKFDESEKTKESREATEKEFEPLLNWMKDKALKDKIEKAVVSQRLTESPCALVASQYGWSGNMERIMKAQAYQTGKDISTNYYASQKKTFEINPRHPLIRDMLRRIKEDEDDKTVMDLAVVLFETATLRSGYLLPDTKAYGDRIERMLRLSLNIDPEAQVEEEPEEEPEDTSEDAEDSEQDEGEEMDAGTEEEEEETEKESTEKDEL
# [14] = target: Cytochrome b-c1 complex subunit 2, mitochondrial (mouse) (UniProt Q9DB77); assay: as above
# Sequence of Cytochrome b-c1 complex subunit 2, mitochondrial (mouse) (Q9DB77 15-453 limits assumed, one chain of several): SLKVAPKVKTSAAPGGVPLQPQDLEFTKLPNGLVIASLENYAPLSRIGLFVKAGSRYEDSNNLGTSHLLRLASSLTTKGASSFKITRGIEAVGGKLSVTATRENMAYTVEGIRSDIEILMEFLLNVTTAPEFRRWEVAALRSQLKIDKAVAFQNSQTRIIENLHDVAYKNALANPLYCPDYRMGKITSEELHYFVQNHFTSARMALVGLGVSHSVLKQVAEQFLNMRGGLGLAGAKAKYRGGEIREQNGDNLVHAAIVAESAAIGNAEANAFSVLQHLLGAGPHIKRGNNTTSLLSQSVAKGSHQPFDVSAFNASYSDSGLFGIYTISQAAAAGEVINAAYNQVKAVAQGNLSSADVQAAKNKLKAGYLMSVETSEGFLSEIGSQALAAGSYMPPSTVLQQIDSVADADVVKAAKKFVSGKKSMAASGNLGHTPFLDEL
# [15] = target: Clusterin (mouse) (UniProt Q06890); assay: as above
# Sequence of Clusterin (mouse) (Q06890 22-448 limits assumed): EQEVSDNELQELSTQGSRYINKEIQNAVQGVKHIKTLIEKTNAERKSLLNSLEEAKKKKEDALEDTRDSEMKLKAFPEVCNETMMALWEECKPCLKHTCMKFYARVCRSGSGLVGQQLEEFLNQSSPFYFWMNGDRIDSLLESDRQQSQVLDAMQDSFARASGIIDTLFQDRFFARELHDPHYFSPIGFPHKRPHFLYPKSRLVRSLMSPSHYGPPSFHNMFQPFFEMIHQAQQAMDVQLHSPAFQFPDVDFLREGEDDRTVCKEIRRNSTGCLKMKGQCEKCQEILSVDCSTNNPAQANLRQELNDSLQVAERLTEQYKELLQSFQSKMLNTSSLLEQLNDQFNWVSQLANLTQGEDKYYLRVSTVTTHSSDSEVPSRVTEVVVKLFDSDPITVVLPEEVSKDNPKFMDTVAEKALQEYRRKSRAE
# [16] = target: recombinant mouse Galectin-9 (R&D Systems) (mouse) (UniProt O08573); assay: Control in the bead flow cytometry assay: Dectin-1 IgG Fc beads + rGal-9, stained with the fluorescent isotype antibody instead of αGal-9 (row + + - + -) [cont.) F]
# Sequence of human IgG Fc-conjugated Dectin-1 fusion protein (murine Dectin-1 IgG Fc; fc-mdec1a, InvivoGen) (Q6QLQ4 69-244 limits assumed): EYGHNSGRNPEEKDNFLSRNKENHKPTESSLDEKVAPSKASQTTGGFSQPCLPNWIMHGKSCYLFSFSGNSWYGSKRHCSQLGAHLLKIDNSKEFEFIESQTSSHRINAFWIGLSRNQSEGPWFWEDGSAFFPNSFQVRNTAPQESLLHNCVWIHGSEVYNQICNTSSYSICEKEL
# Sequence of Polyadenylate-binding protein 1 (mouse) (P29341 whole entry): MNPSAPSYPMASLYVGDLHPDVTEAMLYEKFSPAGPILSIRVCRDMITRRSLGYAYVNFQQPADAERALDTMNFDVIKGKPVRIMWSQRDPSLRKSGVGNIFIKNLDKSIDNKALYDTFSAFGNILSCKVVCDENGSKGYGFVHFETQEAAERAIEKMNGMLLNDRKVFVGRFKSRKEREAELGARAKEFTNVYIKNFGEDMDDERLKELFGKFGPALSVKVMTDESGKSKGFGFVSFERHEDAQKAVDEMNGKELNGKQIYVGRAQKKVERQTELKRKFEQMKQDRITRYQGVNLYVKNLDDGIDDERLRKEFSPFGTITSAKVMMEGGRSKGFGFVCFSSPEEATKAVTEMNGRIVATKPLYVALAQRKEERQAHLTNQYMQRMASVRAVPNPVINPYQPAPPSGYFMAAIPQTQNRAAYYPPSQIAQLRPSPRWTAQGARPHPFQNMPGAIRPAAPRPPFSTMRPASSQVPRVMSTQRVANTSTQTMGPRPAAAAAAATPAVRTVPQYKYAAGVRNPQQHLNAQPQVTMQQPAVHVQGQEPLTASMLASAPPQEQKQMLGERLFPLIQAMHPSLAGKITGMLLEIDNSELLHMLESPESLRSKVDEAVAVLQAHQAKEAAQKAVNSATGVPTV
# Sequence of Putative uncharacterized protein (Sqrdl) (mouse) (Q9R112 whole entry): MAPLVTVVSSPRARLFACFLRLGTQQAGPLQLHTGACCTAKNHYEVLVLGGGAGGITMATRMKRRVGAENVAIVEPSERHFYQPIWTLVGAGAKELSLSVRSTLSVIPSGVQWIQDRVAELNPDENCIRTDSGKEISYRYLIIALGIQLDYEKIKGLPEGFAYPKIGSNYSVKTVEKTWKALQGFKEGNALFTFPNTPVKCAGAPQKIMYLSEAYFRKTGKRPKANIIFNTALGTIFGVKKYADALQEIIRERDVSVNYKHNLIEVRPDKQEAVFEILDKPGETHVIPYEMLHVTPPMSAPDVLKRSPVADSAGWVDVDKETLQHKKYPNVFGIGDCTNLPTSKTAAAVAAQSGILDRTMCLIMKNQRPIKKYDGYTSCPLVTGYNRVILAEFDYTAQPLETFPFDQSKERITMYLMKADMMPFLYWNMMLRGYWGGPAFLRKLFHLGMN
substance,measurement,setting,value
"human IgG Fc-conjugated Dectin-1 fusion protein (murine Dectin-1 IgG Fc; fc-mdec1a, InvivoGen) (from UniProt Q6QLQ4 69-244) (Fc fusion)",# PSM (IP1) (peptide spectral matches),[1],13
same,# PSM (IP2) (peptide spectral matches),[1],92
same,# PSM (IP1) (peptide spectral matches),[2],6
same,# PSM (IP2) (peptide spectral matches),[2],19
same,# PSM (IP1) (peptide spectral matches),[3],4
same,# PSM (IP2) (peptide spectral matches),[3],10
same,# PSM (IP1) (peptide spectral matches),[4],7
same,# PSM (IP2) (peptide spectral matches),[4],16
same,# PSM (IP1) (peptide spectral matches),[5],13
same,# PSM (IP2) (peptide spectral matches),[5],14
same,# PSM (IP1) (peptide spectral matches),[6],23
same,# PSM (IP2) (peptide spectral matches),[6],31
same,# PSM (IP1) (peptide spectral matches),[7],11
same,# PSM (IP2) (peptide spectral matches),[7],11
same,# PSM (IP1) (peptide spectral matches),[8],7
same,# PSM (IP2) (peptide spectral matches),[8],14
same,# PSM (IP1) (peptide spectral matches),[9],5
same,# PSM (IP2) (peptide spectral matches),[9],6
same,# PSM (IP1) (peptide spectral matches),[10],23
same,# PSM (IP2) (peptide spectral matches),[10],48
same,# PSM (IP1) (peptide spectral matches),[11],6
same,# PSM (IP2) (peptide spectral matches),[11],23
same,# PSM (IP1) (peptide spectral matches),[12],7
same,# PSM (IP2) (peptide spectral matches),[12],36
same,# PSM (IP1) (peptide spectral matches),[13],30
same,# PSM (IP2) (peptide spectral matches),[13],8
same,# PSM (IP1) (peptide spectral matches),[14],8
same,# PSM (IP2) (peptide spectral matches),[14],8
same,# PSM (IP1) (peptide spectral matches),[15],8
same,# PSM (IP2) (peptide spectral matches),[15],9
fluorescently-conjugated isotype antibody,MFI,[16],669
